Laboratory results published in patent publication US20160368974A1 (UMC UTRECHT HOLDING B V, published 2016).
Changes are numbered by the printed parent chain. Ends that are not written are not given here.

T1: peptide …
T1 sequence (peptide): TYSSPEDAIHELFP

T2: peptide …
T2 sequence (peptide): TYSSPEDGAHELFP

T3: peptide …
T3 sequence (peptide): TYSSPEDGIHELAP

T4: peptide TASSPEDGIHELFP (also: covalently linked to a PEPSCAN card)
T4 construct: also called replaced amino acid Y
T4 peptide: TASSPEDGIHELFP

T5: peptide TYASPEDGIHELFP (also: covalently linked to a PEPSCAN card)
T5 construct: also called replaced amino acid S (first)
T5 peptide: TYASPEDGIHELFP

T6: peptide TYSAPEDGIHELFP (also: covalently linked to a PEPSCAN card)
T6 construct: also called replaced amino acid S (second)
T6 peptide: TYSAPEDGIHELFP

T7: peptide TYSSAEDGIHELFP (also: covalently linked to a PEPSCAN card)
T7 construct: also called replaced amino acid P (first)
T7 peptide: TYSSAEDGIHELFP

T8: peptide TYSSPADGIHELFP (also: covalently linked to a PEPSCAN card)
T8 construct: also called replaced amino acid E (first)
T8 peptide: TYSSPADGIHELFP

T9: peptide TYSSPEAGIHELFP (also: covalently linked to a PEPSCAN card)
T9 construct: also called replaced amino acid D
T9 peptide: TYSSPEAGIHELFP

T10: peptide TYSSPEDGIAELFP (also: covalently linked to a PEPSCAN card)
T10 construct: also called replaced amino acid H
T10 peptide: TYSSPEDGIAELFP

T11: peptide TYSSPEDGIHALFP (also: covalently linked to a PEPSCAN card)
T11 construct: also called replaced amino acid E (second)
T11 peptide: TYSSPEDGIHALFP

T12: peptide TYSSPEDGIHEAFP (also: covalently linked to a PEPSCAN card)
T12 construct: also called replaced amino acid L
T12 peptide: TYSSPEDGIHEAFP

T13: peptide TYSSPEDGIHELFA (also: covalently linked to a PEPSCAN card)
T13 construct: also called replaced amino acid P (second)
T13 peptide: TYSSPEDGIHELFA

T14: peptide TYSSPEDGIHELFP (also: covalently linked to a PEPSCAN card)
T14 construct: Synthetic peptide covalently linked to a PEPSCAN card; parent peptide of the alanine scan; also called replaced amino acid: none
T14 peptide: TYSSPEDGIHELFP

T15: peptide AYSSPEDGIHELFP (also: covalently linked to a PEPSCAN card)
T15 construct: also called replaced amino acid T
T15 peptide: AYSSPEDGIHELFP

T16: peptide …
T16 sequence (peptide): TYSSPEDGIHEAFP

B1: antibody 17G8.72 (antibody, V domains shown)
VH: DVQLQESGPDLVKPSQSLSLTCTVTGYSIASGYSWHWIRQFPGNKLEWMGYIHFSGSANYNPSLKSRISITRDTSKNQFFLQLNSVTTEDTATYYCASEARGYFDYWGQGTTLTVSS
VL: DVLMTQTPLSLPVSLGDQASISCRSSQSIVRSNGNTYLTWYLQKPGQSPKLLIYKVSNRFSGVPDRFSGSGSGTDFTLKISRVEAEDLGVYFCFQGSHVPPTFGSGTKLEIKR
notes: Monoclonal antibody against the EDA domain of fibronectin-EDA; also called 17G8.7VL
B2: antibody 27A12.70 (antibody, V domains shown)
VH: B1 VH with A30T, F54Y, S57I, Q78H, S98T, A100K, R101T, Y103F
VL: B1 VL with L3V, I29L, R31H, T39H, F94S, G96S, S97A, S105G
notes: Murine monoclonal antibody against the EDA domain of fibronectin-EDA
B3: antibody 29E7.35 (antibody, V domains shown)
VH: B1 VH with D1A, Q16H, A30T, F54Y, I68F, S98T, A100K, R101T, Y103F
VL: B1 VL with L3V, I29L, R31H, T39H, F94S, G96S, S97A, S105G
notes: Monoclonal antibody against the EDA domain of fibronectin-EDA

Assays:
Assay in all cases: PEPSCAN-based ELISA, peptide linked to card
[1] = target: T1, peptide …
[2] = target: T2, peptide …; remark: listed apart in the source
[3] = target: T3, peptide …; remark: listed apart in the source
peptide TASSPEDGIHELFP = target: T4, peptide TASSPEDGIHELFP
Protocol: (§1) The binding of antibody to each peptide was tested in a PEPSCAN-based ELISA. The 455-well credit card format polypropylene cars containing the covalently linked peptides were incubated with primary antibody solution consisting of 0.05 micrograms antibody/mL diluted in blocking solution, i.e., 4% horse serum, 5% ovalbumin (w/v) in PBS/0.1% Tween. After washing, the peptides were incubated with a 1/1000 dilution of antibody peroxidase conjugate for one hour at 25° C. After washing, the peroxidase substrate 2,2′-azino-di-3-ehtylbenzthiazoline sulfonate (ABTS) and 2 microliters of 3 percent H₂O₂ were added. After one hour, the colour development was measured. The colour development was quantified with a charge coupled device (CCD)-camera and an image processing system (as firstly described in Slootstra et al. Mol Divers. 1996 February; 1(2):87-96).
(§2) Peptide synthesis, screening assays and data calculation for alanine-scan of fibronectin-EDA epitope are performed as described in Example 1. Peptides based on […] were synthesized wherein in each peptide one amino acid is replaced by an alanine. The peptides were tested for binding by antibodies 27A12.70, 29E7.35, 17G8.72 and 42H11.51.

peptide TYASPEDGIHELFP = target: T5, peptide TYASPEDGIHELFP
Protocol: as §1, §2

peptide TYSAPEDGIHELFP = target: T6, peptide TYSAPEDGIHELFP
Protocol: as §1, §2

peptide TYSSAEDGIHELFP = target: T7, peptide TYSSAEDGIHELFP
Protocol: as §1, §2

peptide TYSSPADGIHELFP = target: T8, peptide TYSSPADGIHELFP
Protocol: as §1, §2

peptide TYSSPEAGIHELFP = target: T9, peptide TYSSPEAGIHELFP
Protocol: as §1, §2

peptide TYSSPEDGIAELFP = target: T10, peptide TYSSPEDGIAELFP
Protocol: as §1, §2

peptide TYSSPEDGIHALFP = target: T11, peptide TYSSPEDGIHALFP
Protocol: as §1, §2

peptide TYSSPEDGIHEAFP = target: T12, peptide TYSSPEDGIHEAFP
Protocol: as §1, §2

peptide TYSSPEDGIHELFA = target: T13, peptide TYSSPEDGIHELFA
Protocol: as §1, §2

peptide TYSSPEDGIHELFP = target: T14, peptide TYSSPEDGIHELFP
Protocol: as §1, §2

peptide AYSSPEDGIHELFP = target: T15, peptide AYSSPEDGIHELFP
Protocol: as §1, §2

[4] = target: T16, peptide …; remark: listed apart in the source

Row | Binder | Antibody binding (arbitrary optical density units) (arbitrary optical density units) [1] | Antibody binding (arbitrary optical density units) (arbitrary optical density units) [2] | Antibody binding (arbitrary optical density units) (arbitrary optical density units) [3] | Antibody binding (arbitrary optical density units) (peptide TASSPEDGIHELFP) | Antibody binding (arbitrary optical density units) (peptide TYASPEDGIHELFP) | Antibody binding (arbitrary optical density units) (peptide TYSAPEDGIHELFP) | Antibody binding (arbitrary optical density units) (peptide TYSSAEDGIHELFP) | Antibody binding (arbitrary optical density units) (peptide TYSSPADGIHELFP) | Antibody binding (arbitrary optical density units) (peptide TYSSPEAGIHELFP) | Antibody binding (arbitrary optical density units) (peptide TYSSPEDGIAELFP) | Antibody binding (arbitrary optical density units) (peptide TYSSPEDGIHALFP) | Antibody binding (arbitrary optical density units) (peptide TYSSPEDGIHEAFP) | Antibody binding (arbitrary optical density units) (peptide TYSSPEDGIHELFA) | Antibody binding (arbitrary optical density units) (peptide TYSSPEDGIHELFP) | Antibody binding (arbitrary optical density units) (peptide AYSSPEDGIHELFP) | Antibody binding (arbitrary optical density units) (arbitrary optical density units) [4]
1 | B1 | 89 | 66 | 106 | 2670 arbitrary optical density units | 2500 arbitrary optical density units | 2100 arbitrary optical density units | 2090 arbitrary optical density units | 2480 arbitrary optical density units | 2650 arbitrary optical density units | 2560 arbitrary optical density units | 2100 arbitrary optical density units | 1550 arbitrary optical density units | 2160 arbitrary optical density units | 2090 arbitrary optical density units | 2150 arbitrary optical density units | –
2 | B2 | 122 | 91 | 249 | 2790 arbitrary optical density units | 2720 arbitrary optical density units | 2680 arbitrary optical density units | 2710 arbitrary optical density units | 2690 arbitrary optical density units | 2750 arbitrary optical density units | 2400 arbitrary optical density units | 2200 arbitrary optical density units | 1780 arbitrary optical density units | 2600 arbitrary optical density units | 2680 arbitrary optical density units | 2710 arbitrary optical density units | –
3 | B3 | 81 | 74 | 124 | 2840 arbitrary optical density units | 2740 arbitrary optical density units | 2630 arbitrary optical density units | 2660 arbitrary optical density units | 2630 arbitrary optical density units | 2720 arbitrary optical density units | 1800 arbitrary optical density units | 302 arbitrary optical density units | – | 2600 arbitrary optical density units | 2750 arbitrary optical density units | 2780 arbitrary optical density units | 194
